Source: patent EP4613777A1 (Guangdong Keyangle Life Technology Co., Ltd., dated 2025)

How the values were obtained:
[1] = molecular target: T1, Peptide fragment KL19; assay: indirect ELISA, peptide as coating antigen
T1 construct: Used as ELISA coating antigen
T1 peptide: KEQPDPGAVAAAAILRAIL

[2] = molecular target: T2, Peptide fragment KS24; assay: indirect ELISA, peptide as coating antigen
T2 construct: It contains VLQS; Used as ELISA coating antigen
T2 peptide: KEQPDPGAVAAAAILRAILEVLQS

B1: KA-001 monoclonal antibody (antibody, mouse IgG1, kappa, V domains shown)
VH: DVKIVESGGGLVKLGGSLKLSCAASGFTFSRNYMSWVRQTPEKRLELVAGINNNGGSTYYPDTVKGRFTISRDNAKNTLYLQMSSLRSEDTAIYYCAKRGFITTVGAMDYWGQGISVTVSS
VL: DIQMTQTTFSLSASLGDRVTISCRASQDISNYLNWYQQIPDGTVKLLIYYTSRLHSGVPSRFSGSGSGTDYSLTISNLEQEDIATYFCQQVHTLPYTFGGGTKLEMKR
notes: also called antibody KA-001
binding result [1]: no binding
binding result [2]: binds
